Reference: patent US20220031842A1 (JIANGSU HENGRUI MEDICINE, published 2022)
Where two headings read alike, the source gives them in different places.

T1: LAG-3 extracellular domain with a Flag tag (human, UniProt P18627 23-434)
T1 construct: also called LAG-3-Flag; LAG-3-Flag antigen
T1 sequence: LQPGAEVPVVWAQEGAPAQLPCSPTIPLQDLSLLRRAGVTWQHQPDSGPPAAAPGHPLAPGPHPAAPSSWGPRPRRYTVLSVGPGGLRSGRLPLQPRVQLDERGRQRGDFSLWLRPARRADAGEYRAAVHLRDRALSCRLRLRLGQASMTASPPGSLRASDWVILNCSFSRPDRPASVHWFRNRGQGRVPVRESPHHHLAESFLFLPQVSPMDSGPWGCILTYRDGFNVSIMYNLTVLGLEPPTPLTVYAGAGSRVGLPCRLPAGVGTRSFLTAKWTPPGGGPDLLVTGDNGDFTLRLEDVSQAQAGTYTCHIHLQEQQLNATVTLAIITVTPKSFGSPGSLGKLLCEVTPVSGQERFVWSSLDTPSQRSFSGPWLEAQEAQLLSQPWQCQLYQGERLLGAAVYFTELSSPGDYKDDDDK


Experiments:
[1] = molecular target: T2, Fusion protein of LAG-3 extracellular region and hIgG1 Fc (human); assay: competition: biotin-LAG-3-Fc binding to fixed Daudi cells, antibody titrated
T2 construct: Limits of the signal peptide are marked only by lost underlining; also called LAG-3-Fc; LAG-3-Fc fusion protein
Procedure, shortened: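 Daudi cells were PFA-fixed and blocked, then given 0.4 μg/ml (final) biotin-LAG-3-Fc premixed for 1 h with titrated antibody, and incubated 1 h at 37° C. Bound fusion protein was detected with HRP-streptavidin and TMB, read at OD450. Antibody blocking of antigen binding to the cells was calculated from the signal.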
Target sequence in this assay (chain, as listed by the source limits assumed): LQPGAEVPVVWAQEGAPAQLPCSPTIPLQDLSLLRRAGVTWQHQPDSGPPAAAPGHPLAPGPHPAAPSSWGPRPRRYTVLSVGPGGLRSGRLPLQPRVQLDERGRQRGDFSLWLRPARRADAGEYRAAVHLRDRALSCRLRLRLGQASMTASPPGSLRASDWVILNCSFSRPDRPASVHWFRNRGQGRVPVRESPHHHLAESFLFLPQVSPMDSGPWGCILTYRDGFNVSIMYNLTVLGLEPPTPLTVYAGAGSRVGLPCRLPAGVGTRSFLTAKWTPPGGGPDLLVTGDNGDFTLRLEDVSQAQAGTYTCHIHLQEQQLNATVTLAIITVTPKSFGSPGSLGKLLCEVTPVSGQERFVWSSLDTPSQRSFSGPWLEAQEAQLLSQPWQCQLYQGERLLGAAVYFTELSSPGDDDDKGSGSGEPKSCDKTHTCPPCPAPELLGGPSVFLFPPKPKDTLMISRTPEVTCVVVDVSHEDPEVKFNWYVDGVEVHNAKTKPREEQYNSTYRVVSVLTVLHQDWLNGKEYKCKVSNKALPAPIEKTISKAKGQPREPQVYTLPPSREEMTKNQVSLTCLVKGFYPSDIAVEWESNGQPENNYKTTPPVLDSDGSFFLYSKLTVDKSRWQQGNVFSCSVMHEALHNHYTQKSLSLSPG

[2] = molecular target: T1, LAG-3 extracellular domain with a Flag …; assay: SPR (Biacore), antibody captured on anti-human capture chip, LAG-3-Flag in flow
Text: 2. […] Then, the LAG-3-Flag antigen (produced in-house, SEQ ID NO:1) was flowed through the surface of the biochip, and the reaction signal was detected real time using a Biacore instrument to obtain the binding and dissociation curves, the value of affinity was obtained by fitting, see table 10 below. After each cycle of dissociation was finished in the experiment, the biochip was washed and regenerated with a regeneration solution provided in the human anti-capture kit.

[3] = molecular target: T2, Fusion protein of LAG-3 extracellular …; assay: ELISA, LAG-3-Fc captured by anti-human Fc on plate (which fusion: inferred)
Text: The binding ability of anti-LAG-3 antibody to human LAG-3 protein was detected by ELISA assay. LAG-3 fusion protein with Fc or mFc tag was immobilized into 96-well microtiter plate by binding to anti-Fc or anti-mFc antibody coated on the microtiter plate, the strength of the signal after the addition of the antibody was used to determine the binding activity of the antibody to LAG-3, the specific experimental method is as follows.
The goat anti-human Fc antibody (Jackson Immuno Research, Cat No. 109-005-008) or goat anti-mouse Fc antibody (Sigma, Cat No. M3534-1ML) was diluted to a concentration of 2 μg/ml with PBS buffer at pH 7.4 (Sigma, Cat No. P4417-100TAB), and added to a 96-well plate at a volume of 50 μl/well and then, the plate was incubated in the incubator at 37° C. for 2 hours. After discarding the liquid, the plates were blocked with 200 μl/well of blocking solution containing 5% skim milk (Bright Dairy, skim milk powder) in PBS, and incubated in the incubator at 37° C. for 2.5 hours or overnight at 4° C. (16-18 hours). After blocking, the blocking solution was discarded and the plate was washed 5 times with PBST buffer (PH7.4 PBS containing 0.05% tween-20). […]

[4] = molecular target: T2, Fusion protein of LAG-3 extracellular …; assay: competition: biotin-LAG-3-Fc binding to fixed Daudi cells, antibody titrated; remark: listed apart in the source
Method: Daudi cells (human leukemia cells, purchased from the cell bank in Chinese Academy of Sciences) were seeded in 96-well plate with a density of 3×10⁵/well. After centrifugation at 1000 rpm, the supernatant was discarded and then the plate was fixed with 4% PFA for 30 min at room temperature. The plate was washed 4 times with PBS after discarding the fixed solution, and the plate was blocked with 200 μl/well of blocking solution containing 5% skim milk (Bright Dairy, skim milk powder) diluted in PBS, and incubated at 37° C. for 2.5 hours. After blocking, the blocking solution was discarded and the plate was washed 5 times with PBST buffer (pH7.4 PBS containing 0.05% tween-20), added with 50 μl/well mixture of biotin-labeled (Biotin labeling kit, Dojindo Chemical, Cat No. LK03) LAG-3-Fc fusion protein (produced in-house, SEQ ID NO: 3) and gradient concentrations of the antibody to be tested, wherein the biotin-labeled LAG-3-Fc fusion protein has been diluted with sample diluent (PH7.4 PBS containing 1% BSA) at a final concentration of 0.4 μg/ml, and pre-mixed for an hour, then the plate was incubated at 37° C. for 1 h. […] The OD value at a wavelength of 450 nm was read on NOVOStar microplate reader, and then the activity of the LAG-3 antibody in blocking the binding of the antigen to Daudi cells was calculated.

IC50 [1] | Kd [2] | EC50 [3] | IC50 [4] | Binder
596 pM | 74.9 pM | 172 pM | 596 pM | mAb303 (antibody, V domains shown, Murine hybridoma antibody; also called LAG-3 antibody mAb303; hybridoma clone mAb303) VH: EVQLQQSGPVLVKPGASVKMSCKASGYTLTDYYMNWVKQSHGKSLEWIGVINPYNGDTAYNQKFKGKATLTVDKSSNTAYMEINSLTSEDSAVYYCTRDDGYYDYYFDVWGTGTTVTVSS VL: DIQMTQSPSSLSASLGERVILTCRASQDIGSRLNWLQQGPDGTFKRLIYATSTLDSGVPKRFSGSRSGSDFSLTISSLESEDFVDYYCLQLASSPPTFGGGTKLEIK
1330 pM | 17.2 pM | 129 pM | 1330 pM | mAb229 (antibody, V domains shown, Murine hybridoma antibody; also called LAG-3 antibody mAb229; hybridoma clone mAb229) VH: QIQLVQSGPELKKPGETVKISCKASGYTFTTSGMSWVKQAPGKGLKWMGWINTYSGVPTYADDFKGRFAFSLETSASTAYLQINNLKNEDTATYFCARDNYDARDVYYYAMDYWGQGTSVTVSS VL: DIQMTQSPASLSVSVGETVTITCRASENIYSNLAWYQQKQGKSPQLLVYAATNLADGVPSRFSGSGSGTQYSLKINSLQSEDFGSYYCQHFWITPWTFGGGTKLEIK
